Source: patent US20100196266A1 (published 2010)

What was measured:
human CD74 on cells [1] = target: T1, human CD74 on cells (human, UniProt P04233 1-296); experiment: indirect flow cytometry, Namalwa cells, FITC-GAM; none 2.91
T1 construct: whole, on cells
T1 sequence (looked up): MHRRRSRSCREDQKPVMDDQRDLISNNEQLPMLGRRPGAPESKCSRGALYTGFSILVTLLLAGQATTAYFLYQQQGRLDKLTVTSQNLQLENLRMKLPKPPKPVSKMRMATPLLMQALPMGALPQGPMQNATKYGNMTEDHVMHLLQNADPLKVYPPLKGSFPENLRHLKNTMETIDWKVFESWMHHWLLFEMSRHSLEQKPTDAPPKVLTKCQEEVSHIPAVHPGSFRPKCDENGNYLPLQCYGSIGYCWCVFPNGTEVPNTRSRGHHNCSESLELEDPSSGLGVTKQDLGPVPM

human CD74 on cells [2] = target: T1, human CD74 on cells; experiment: flow cytometry, 697 (ALL) cells; no mAb 4.9
human CD74 on cells [3] = target: T1, human CD74 on cells; experiment: flow cytometry, Kasumi-1 (AML) cells; no mAb 18.2
human CD74 on cells [4] = target: T1, human CD74 on cells; experiment: flow cytometry, RS4;11 (ALL) cells; no mAb 6.4
human CD74 on cells [5] = target: T1, human CD74 on cells; experiment: flow cytometry, HC-1 (hairy cell leukemia) cells; no mAb 4.8
human CD74 on cells [6] = target: T1, human CD74 on cells; experiment: flow cytometry, MN60 (ALL) cells; no mAb 8.1
human CD74 on cells [7] = target: T1, human CD74 on cells; experiment: flow cytometry, REH (ALL) cells; no mAb 3.9
human CD74 on cells [8] = target: T1, human CD74 on cells; experiment: flow cytometry, GDM-1 (AML) cells; no mAb 16.8
human CD74 on cells [9] = target: T1, human CD74 on cells; experiment: flow cytometry, K562 (CML) cells; no mAb 3.2
human CD74 on cells [10] = target: T1, human CD74 on cells; experiment: flow cytometry, Kasumi-3 (AML) cells; no mAb 9.6
human CD74 on cells [11] = target: T1, human CD74 on cells; experiment: flow cytometry, MEC-1 (CLL) cells; no mAb 4.7
human CD74 on cells [12] = target: T1, human CD74 on cells; experiment: flow cytometry, WAC (CLL) cells; no mAb 15.8
human CD74 on cells [13] = target: T1, human CD74 on cells; experiment: flow cytometry, Granta-519 (MCL) cells; no mAb 15.3
human CD74 on cells [14] = target: T1, human CD74 on cells; experiment: flow cytometry, Jeko-1 (MCL) cells; no mAb 14.3
[15] = target: T2, human leukocyte antigen-DR (HLA-DR) on human lymphoma and leukemia cell lines and human lymphocytes (human); experiment: indirect flow cytometry, Namalwa cells, FITC-GAM; none 2.91
[16] = target: T2, human leukocyte antigen-DR (HLA-DR) on …; experiment: flow cytometry, 697 (ALL) cells; no mAb 4.9
[17] = target: T2, human leukocyte antigen-DR (HLA-DR) on …; experiment: flow cytometry, Kasumi-1 (AML) cells; no mAb 18.2
[18] = target: T2, human leukocyte antigen-DR (HLA-DR) on …; experiment: flow cytometry, RS4;11 (ALL) cells; no mAb 6.4
[19] = target: T2, human leukocyte antigen-DR (HLA-DR) on …; experiment: flow cytometry, HC-1 (hairy cell leukemia) cells; no mAb 4.8
[20] = target: T2, human leukocyte antigen-DR (HLA-DR) on …; experiment: flow cytometry, MN60 (ALL) cells; no mAb 8.1
[21] = target: T2, human leukocyte antigen-DR (HLA-DR) on …; experiment: flow cytometry, REH (ALL) cells; no mAb 3.9
[22] = target: T2, human leukocyte antigen-DR (HLA-DR) on …; experiment: flow cytometry, GDM-1 (AML) cells; no mAb 16.8
[23] = target: T2, human leukocyte antigen-DR (HLA-DR) on …; experiment: flow cytometry, K562 (CML) cells; no mAb 3.2
[24] = target: T2, human leukocyte antigen-DR (HLA-DR) on …; experiment: flow cytometry, Kasumi-3 (AML) cells; no mAb 9.6
[25] = target: T2, human leukocyte antigen-DR (HLA-DR) on …; experiment: flow cytometry, MEC-1 (CLL) cells; no mAb 4.7
[26] = target: T2, human leukocyte antigen-DR (HLA-DR) on …; experiment: flow cytometry, WAC (CLL) cells; no mAb 15.8
[27] = target: T2, human leukocyte antigen-DR (HLA-DR) on …; experiment: flow cytometry, Granta-519 (MCL) cells; no mAb 15.3
[28] = target: T2, human leukocyte antigen-DR (HLA-DR) on …; experiment: flow cytometry, Jeko-1 (MCL) cells; no mAb 14.3
human CD22 on cells [29] = target: T3, human CD22 on cells (human, UniProt P20273 20-847); experiment: indirect flow cytometry, Namalwa cells, FITC-GAM; none 2.91
T3 construct: whole, on cells

human CD22 on cells [30] = target: T3, human CD22 on cells; experiment: flow cytometry, 697 (ALL) cells; no mAb 4.9
human CD22 on cells [31] = target: T3, human CD22 on cells; experiment: flow cytometry, Kasumi-1 (AML) cells; no mAb 18.2
human CD22 on cells [32] = target: T3, human CD22 on cells; experiment: flow cytometry, RS4;11 (ALL) cells; no mAb 6.4
human CD22 on cells [33] = target: T3, human CD22 on cells; experiment: flow cytometry, HC-1 (hairy cell leukemia) cells; no mAb 4.8
human CD22 on cells [34] = target: T3, human CD22 on cells; experiment: flow cytometry, MN60 (ALL) cells; no mAb 8.1
human CD22 on cells [35] = target: T3, human CD22 on cells; experiment: flow cytometry, REH (ALL) cells; no mAb 3.9
human CD22 on cells [36] = target: T3, human CD22 on cells; experiment: flow cytometry, GDM-1 (AML) cells; no mAb 16.8
human CD22 on cells [37] = target: T3, human CD22 on cells; experiment: flow cytometry, K562 (CML) cells; no mAb 3.2
human CD22 on cells [38] = target: T3, human CD22 on cells; experiment: flow cytometry, Kasumi-3 (AML) cells; no mAb 9.6
human CD22 on cells [39] = target: T3, human CD22 on cells; experiment: flow cytometry, MEC-1 (CLL) cells; no mAb 4.7
human CD22 on cells [40] = target: T3, human CD22 on cells; experiment: flow cytometry, WAC (CLL) cells; no mAb 15.8
human CD22 on cells [41] = target: T3, human CD22 on cells; experiment: flow cytometry, Granta-519 (MCL) cells; no mAb 15.3
human CD22 on cells [42] = target: T3, human CD22 on cells; experiment: flow cytometry, Jeko-1 (MCL) cells; no mAb 14.3
human CD20 on cells = target: T4, human CD20 on cells (human, UniProt P11836 1-297); experiment: indirect flow cytometry, Namalwa cells, FITC-GAM; none 2.91
T4 construct: whole, on cells
T4 sequence (looked up): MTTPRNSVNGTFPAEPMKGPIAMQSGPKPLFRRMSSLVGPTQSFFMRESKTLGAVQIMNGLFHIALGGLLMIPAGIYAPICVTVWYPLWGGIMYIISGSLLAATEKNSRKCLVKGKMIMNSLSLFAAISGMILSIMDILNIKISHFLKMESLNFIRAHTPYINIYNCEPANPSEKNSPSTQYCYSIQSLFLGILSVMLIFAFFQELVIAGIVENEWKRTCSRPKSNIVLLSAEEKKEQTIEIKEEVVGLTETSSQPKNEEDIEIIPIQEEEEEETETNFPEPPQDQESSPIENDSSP

B1: murine LL1 (anti-human CD74) (antibody, V domains shown)
VH: QIQLVQSGPELKKPGETVKVTCKTSGYTFTNYGVNWIKQTPGEGLQWMGWINPNTGEPTFDDDFKGRFAFSLESSASTAFLQISNLKNEDMGTYFCSRSRGKNEAWFAYWGQGTLVTVSE
VL: DVVMTQTPLSLPVSLGDQASISCRSSQSLVHRNGNTYLHWYLQKPGQSPKLLIYTVSNRFSGVPDRFSGSGSGTDFTLKISRVEAEDLGLYFCSQSSHVPPTFGAGTKLEI
GEO MEAN Fluorescence (human CD74 on cells [1]): 17.3
mean FL (human CD74 on cells [2]): 20.6
mean FL (human CD74 on cells [3]): 23.8
mean FL (human CD74 on cells [4]): 24.3
mean FL (human CD74 on cells [5]): 36.7
mean FL (human CD74 on cells [6]): 25.9
mean FL (human CD74 on cells [7]): 61.1
mean FL (human CD74 on cells [8]): 69.5
mean FL (human CD74 on cells [9]): 7
mean FL (human CD74 on cells [10]): 18.4
mean FL (human CD74 on cells [11]): 44.7
mean FL (human CD74 on cells [12]): 43.6
mean FL (human CD74 on cells [13]): 50.8
mean FL (human CD74 on cells [14]): 32.7

B2: murine monoclonal antibody L243 (mL243) (antibody, V domains shown)
VH: QIQLVQSGPELKKPGETVKISCKASGFTFTNYGMNWVKQAPGKGLKWMGWINTYTREPTYADDFKGRFAFSLETSASTAYLQINNLKNEDTAKYFCARDITAVVPTGFDYWGQGTTLTVSS
VL: DIQMTQSPASLSVSVGETVTITCRASENIYSNLAWYRQKQGKSPQLLVFAASNLADGVPSRFSGSGSGTQYSLKINSLQSEDFGDYYCQHFWTTPWAFGGGTNLEIKR
notes: Murine IgG2a from hybridoma ATCC HB55; also called murine L243; mL234
GEO MEAN Fluorescence [15]: 595
mean FL [16]: 259
mean FL [17]: 24
mean FL [18]: 152
mean FL [19]: 515
mean FL [20]: 1220
mean FL [21]: 2090
mean FL [22]: 1070
mean FL [23]: 4.9
mean FL [24]: 565
mean FL [25]: 1700
mean FL [26]: 788
mean FL [27]: 2110
mean FL [28]: 1900

B3: murine LL2 (anti-human CD22) (antibody, V domains shown)
VH: QVQLQESGAELSKPGASVKMSCKASGYTFTSYWLHWIKQRPGQGLEWIGYINPRNDYTEYNQNFKDKATLTADKSSSTAYMQLSSLTSEDSAVYYCARRDITTFYWGQGTTLTVSS
VL: DIQLTQSPSSLAVSAGENVTMSCKSSQSVLYSANHKNYLAWYQQKPGQSPKLLIYWASTRESGVPDRFTGSGSGTDFTLTISRVQVEDLAIYYCHQYLSSWTFGGGTKLEIKR
GEO MEAN Fluorescence (human CD22 on cells [29]): 10.5
mean FL (human CD22 on cells [30]): 15.9
mean FL (human CD22 on cells [31]): 20.9
mean FL (human CD22 on cells [32]): 20.9
mean FL (human CD22 on cells [33]): 17.8
mean FL (human CD22 on cells [34]): 17.1
mean FL (human CD22 on cells [35]): 16.8
mean FL (human CD22 on cells [36]): 28.5
mean FL (human CD22 on cells [37]): 4.3
mean FL (human CD22 on cells [38]): 13.9
mean FL (human CD22 on cells [39]): 49
mean FL (human CD22 on cells [40]): 20.1
mean FL (human CD22 on cells [41]): 28.6
mean FL (human CD22 on cells [42]): 25

B4: 1F5 (murine anti-CD20 mAb) (antibody, V domains shown)
VH: QVQLRQPGAELVKPGASVKMSCKASGYTFTSYNMHWVKQTPGQGLEWIGAIYPGNGDTSYNQKFKGKATLTADKSSSTAYMQLSSLTSEDSAVYYCARSHYGSNYVDYFDYWGQGTTLTVSS
VL: DIVLSQSPAILSASPGEKVTMTCRASSSLSFMHWYQQKPGSSPKPWIYATSNLASGVPARFSGSGSGTSYSLTISRVEAEDAATYFCHQWSSNPLTFGAGTKLELK
GEO MEAN Fluorescence (human CD20 on cells): 3.83
